This is an account of results in patent US7579150B1, “Mobile RNA acts as a signal to regulate plant growth and development” (Iowa State University Research Foundation, Inc., priority 2004, dated 2009).

For assay [1], the system named is POTH1 overexpression lines. Kind of assay: Exogenous GA3 application to POTH1 overexpression lines. Conditions: shoot apex sprayed with 10 μM GA3 in 0.002% (v/v) ethanol. It counts as in vivo, Solanum tuberosum. An excerpt: Many of the traits of the phenotypes observed in POTH1 overexpression lines were similar to GA-deficient mutants. These similarities included decreased plant height, decreased internode length, and darker green coloration of the leaves (van den Berg et al., “Morphology and [^14C]Gibberellin A12 Metabolism in Wild-Type and Dwarf Solanum Tuberosum ssp. Andigena Grown Under Long and Short Photoperiods,” J. Plant Physiol. 146:467-473 (1995), which is hereby incorporated by reference in its entirety). Because of this, exogenous GA3 was applied to determine whether the overexpression lines were responsive to GA treatment. The shoot apex of overexpression lines was sprayed to runoff with 10 μM GA3 in 0.002% (v/v) ethanol or with 0.002% (v/v) ethanol alone. […] Palisade and spongy parenchyma organization is partially rescued in leaves from line 15 treated with GA3 (FIG. 5G). The GA3-treated leaf (FIG. 5J) of the severe mutant, line 15, is more similar in morphology to the wild-type leaf (FIG. 5K). Leaflets are more ovate in form rather than the typical mouse-ear shape. Wild-type leaves have a prominent mid-vein (FIG. 5L), whereas the mid-vein (FIG. 5M, arrow) is more prominent in the mutant GA3-treated leaf than in the mutant untreated leaf (FIG. 5N). […]

The subject of a further assay is ga20ox1 promoter. Kind of assay: Transcription (transfection) assay, pGAOP::GUS reporter in tobacco protoplasts. It counts as cell-based, potato. Conditions: for decrease of relative GUS-LUC activity of the pGAOP::GUS reporter: co-transfected effector, tobacco protoplasts; for repression of ga20ox1 promoter with point mutation in the binding site: mutated reporter construct. An excerpt: The cauliflowermosaic virus (CaMV) 35S promoter in pBI221 (Clontech, Palo Alto, Calif.) was replaced by an enhancer fragment (−832 to −50) of the 35S promoter plus 980 bp of the ga20ox1 promoter to generate the pGAOP::β-glucuronidase (GUS) reporter construct. With this construct, the reporter GUS transcription level is augmented but its transcription may still be affected by the ga20ox1 promoter. A CaMV 35S promoter-driven luciferase (LUC) construct 35S-LUC (obtained from Dr. Takahashi, Dept. of Biological Sciences, Graduate School of Science, Univ. of Tokyo, Japan) was used as an internal control. Effector constructs were also generated by using pBI221 vector as a backbone, with the GUS gene replaced by the full-length cDNAs of either StBEL-05 or POTH1, downstream of the CaMV 35S promoter. Truncated cDNAs that encode the N-terminal protein-binding domains of StBEL-05 or POTH1 were used to generate the dominant negative constructs, StBEL5ΔC295 and POTH1ΔC122, respectively. The reporter construct with the mutated promoter was generated by site-directed PCR mutagenesis with oligos 5′-CTATTTGACTTC*ACACGGTTATTT-3′ (SEQ ID NO:23) and 5′-AAATAACCGTGTG*AAGTCAAATAG-3′ (SEQ ID NO:24).
Fully expanded leaves from three- to four-week-old tobacco plants were excised and placed in K3 basal media (Kao et al., “Nutritional Requirements for Growth of Vicia hajastana Cells and Protoplasts at a Very Low Density in Liquid Media,” Planta 126:105-110 (1975), which is hereby incorporated by reference in its entirety) supplemented with 0.4 M sucrose, 0.25% (w-v) cellulases (Karlan Research Products, Santa Rosa, CA), and 0.05% (w-v) macerases (Calbiochem, La Jolla, Calif.) and incubated for overnight at 28° C. After incubation, the liberated protoplasts were filtered through sterile cheesecloth into a Babcock bottle, and centrifuged for 10 minutes at 1000 rpm. Protoplasts were collected from the bottleneck area and washed once in K3 media with 0.4 M sucrose and resuspended in K3 media containing 0.4 M glucose to a final concentration of 4×10^6 protoplasts per milliliter. […]
Luciferase assays were performed by injecting 100-μL luciferase substrate (Promega, Madison, Wis.) into 20 μL of extract and measuring the emitted photons for 15 seconds in a TD-20 luminometer (Turner Designs, Sunnyvale, Calif.). […] A fluorescence multiwell plate reader, Fluoroskan II (MTX labs, Vienna, Va.), was used to measure GUS activity at 365 nm (excitation) and 455 nm (emission). Each sample was measured three times for both LUC and GUS activity. Relative GUS-LUC activity was calculated by dividing the ratio of GUS activity to LUC activity from different effectors with the ratio from reporter plasmid alone. Relative activities calculated from three transfection replications were presented as a mean±SE.

For a further assay, the system named is CaMV 35S promoter. Kind of assay: Transcription (transfection) assay, 35S GUS construct in tobacco protoplasts. It counts as cell-based, cauliflower mosaic virus.
For assay [2], the system named is ga20ox1 promoter regions P1, P2, P3 and first intron. Kind of assay: Gel retardation (gel mobility shift) assay. It is filed as binding, potato. Conditions: recombinant protein from E. coli. An excerpt:
The first intron with partial flanking exon sequence (450 bp) of potato ga20ox1 and its promoter (981 bp, provided by Dr. Salomé Prat, CSIC Cantoblanco Campus, Univ. of Madrid, Spain) were used for gel mobility shift assays. Polymerase chain reaction (PCR) was used to amplify three regions of the promoter: −981 to 636 (P1), −660 to 307 (P2), and −331 to 0 (P3). About a 25-bp overlap was maintained between P1 and P2 or P2 and P3 in the chance that the protein-binding site would span the overlapped region. The first intron of this gene was amplified from potato genomic DNA by using PCR and the oligos 5′-[…]-3′ (SEQ ID NO:21) and 5′-[…]-3′ (SEQ ID NO:22) as primers. These primers were designed based on the site of the first intron of the tobacco GA20 oxidase gene Ntc12. The four fragments were purified on a 1.4% agarose gel and labeled with α^32P-dATP using Klenow fragment. […]
In the competition assays, unlabeled double-stranded DNA fragments (10×, 25×, 50×, 100×) were incubated with the recombinant protein before the addition of the radioactive probe. The dissociation rates were determined by adding 500-fold more cold DNA fragments to the DNA-binding reactions that were being incubated on ice, and loaded onto the running gel every 10 minutes. […]

The subject of the next assay is POTH1. The assay can be described thus: Yeast two-hybrid interaction with POTH1 (nutritional selection, beta-galactosidase). It is filed as cell-based, potato. Conditions: yeast strain AH109, nutritional markers and lacZ. An excerpt: The Matchmaker two-hybrid system (Clontech, CA) was used for the yeast two-hybrid screen. Yeast transformation and plasmid rescue into DH5-a E. coli cells were according to the manufacturer's instructions. Full-length POTH1 was cloned into the pBridge (Clontech, CA) vector and used as bait to screen the potato (S. tuberosum ‘Desireé’) stolon cDNA library in pAD-GAL4-2.1 (Stratagene, Calif.). Positive interactions were confirmed by cotransforming yeast strain AH109 with each purified pAD plasmid and pBridge: POTH1 and plating on -leucine/-tryptophan (transformation control) and -leucine/-tryptophan/-histidine/-adenine (selection) nutrient medium. Induction of the AH109 reporter gene, lacZ, was measured with a yeast β-galactosidase assay kit (Pierce Chemicals). β-galactosidase activity (FIG. 9B) was determined from a known density of yeast cells and calculated as 1000×OD420/time of color reaction (minutes)×volume of yeast culture (ml)×OD600.
The StBEL-05 deletion constructs were amplified by PCR, then cloned into the vector, pGAD, in-frame with the GAL4 activation domain. POTH1 deletion constructs were amplified by PCR, and cloned into pBridge (Clontech) in-frame with the GAL4 binding domain. Sequencing of selected cDNAs and constructs was performed at the Iowa State University DNA Facility. For deletion analysis, modified constructs of POTH1 were cloned into the pBridge vector for fusion with the DNA-binding domain of GAL4 (FIG. 10A). For StBEL-05, constructs were cloned into the pGAD vector for fusion with the activating domain of GAL4 (FIG. 10B). Deletion constructs were made from both the amino and carboxy termini. These mutants were then tested for interaction in the yeast two-hybrid system by cotransforming into yeast strain AH109 with the corresponding full-length partner (StBEL-05 in pGAL4 or POTH1 in pBridge). All constructs were sequenced to verify that they were in-frame. Positive interactions were verified for lacZ induction by using a β-galactosidase assay (Pierce Chemical Company). For POTH1, seven deletion constructs were tested (FIG. 10A). For the BEL TFs, a fusion construct of StBEL-05 (653 aa of StBEL-05 sequence) and nine deletion constructs were tested (FIG. 10B).

Entries after “also recorded” stand apart in the source; their conditions may differ.

Take `C=C1C[C@]23C[C@@]1(O)CC[C@H]2[C@@]12C=C[C@H](O)[C@@](C)(C(=O)O1)[C@H]2[C@@H]3C(=O)O` [GA3]: in assay [1], the “effect on leaf morphology of POTH1 overexpression lines” value was “partially rescued the leaf morphology of both severe and intermediate phenotypes; also recorded: partial reversal of the leaf phenotype”; the “effect on plant height / dwarf phenotype of POTH1 overexpression lines” value is given as “caused plants with a severe phenotype to increase in height; also recorded: completely rescued the dwarf phenotype”.

B1: StBEL-05: BEL transcription factor from Solanum tuberosum, SEQ ID NO:2, 688 aa (protein, listed as Solanum tuberosum)
chain: MYYQGTSDNTNIQADHQQRHNHGNSNNNNIQTLYLMNPNNYMQGYTTSDTQQQQQLLFLNSSPAASNALCHANIQHAPLQQQHFVGVPLPAVSLHDQINHHGLLQRMWNNQDQSQQVIVPSSTGVSATSCGGITTDLASQLAFQRPIPTPQHRQQQQQQGGLSLSLSPQLQQQISFNNNISSSSPRTNNVTIRGTLDGSSSNMVLGSKYLKAAQELLDEVVNIVGKSIKGDDQKKDNSMNKESMPLASDVNTNSSGGGESSSRQKNEVAVELTTAQRQELQMKKAKLLAMLEEVEQRYRQYHHQMQIIVLSFEQVAGIGSAKSYTQLALHAISKQFRCLKDAIAEQVKATSKSLGEEEGLGGKIEGSRLKFVDHHLRQQRALQQIGMMQPNAWRPQRGLPERAVSVLRAWLFEHFLHPYPKDSDKIMLAKQTGLTRSQVSNWFINARVRLWKPMVEEMYLEEVKNQEQNSTNTSGDNKNKETNISAPNEEKHPIITSSLLQDGITTTQAEISTSTISTSPTAGASLHHAHNFSFLGSFNMDNTTTTVDHIENNAKKQRNDMHKFSPSSILSSVDMEAKARESSNKGFTNPLMAAYAMGDFGRFDPHDQQMTANFHGNNGVSLTLGLPPSENLAMPVSQQNYLSNDLGSRSEMGSHYNRMGYENIDFQSGNKRFPTQLLPDFVTGNLGT
For the molecule B1, in the assay on ga20ox1 promoter, the “decrease of relative GUS-LUC activity of the pGAOP::GUS reporter” value is reported as “more than half” and the “repression of ga20ox1 promoter with point mutation in the binding site” value is on record as “no detectable repression of promoter activity”. Further, the “effect on activity of the CaMV 35S promoter” value in the assay on CaMV 35S promoter is given as “Neither StBEL-05 nor POTH1 showed any effect”. Moreover, in assay [2], the “binding to ga20ox1 regulatory regions” value was “retarded the mobility of all three promoter sequences and the first intron”. Also, the “interaction with POTH1” value in the assay with POTH1 is reported as “showed selective interaction”.

B2: POTH1: KNOX transcription factor of potato, SEQ ID NO:17, 345 aa (protein, listed as Solanum tuberosum)
chain: MDDEMYGFHSTRDDYADKALMSPENLMMQTEYNNFHNYTNSSILTSNPMMFGSDDIQLSSEQTNSFSTMTLQNNDNIYQIRSGNCGGGSGSGGSSKDHNDNNNNNEDYDEDGSNVIKAKIVSHPYYPKLLNAYIDCQKVGAPAGIVNLLEEIRQQTDFRKPNATSICIGADPELDEFMETYCDILLKYKSDLSRPFDEATTFLNKIEMQLGNLCKDDGGVSSDEELSCGEADASMRSEDNELKDRLLRKFGSHLSSLKLEFSKKKKKGKLPKEARQMLLAWWDDHFRWPYPTEADKNSLAESTGLDPKQINNWFINQRKRHWKPSENMQLAVMDNLSSQFFSSDD
Take B2: in the assay on ga20ox1 promoter, the “decrease of relative GUS-LUC activity of the pGAOP::GUS reporter” value is given as “more than half” and the “repression of ga20ox1 promoter with point mutation in the binding site” value is reported as “no detectable repression of promoter activity”. Also, the “effect on activity of the CaMV 35S promoter” value in the assay with CaMV 35S promoter was “Neither StBEL-05 nor POTH1 showed any effect”. For the same molecule, in assay [2], the “binding to ga20ox1 regulatory regions” value is “only formed a complex with P1”.
